From publication doi:10.1101/2023.08.11.549911 come the findings set out here.

For test [1], the target named is LRRK2 R1441G, full-length, N-terminal Strep-FLAG (SF) tagged (human) (UniProt Q5S007). The test can be described thus: native gel or EMSA.
In test [2] the target is Leucine-rich repeat kinase 2 (LRRK2), full-length wild type, N-terminal Strep-FLAG (SF) tagged (human) (UniProt Q5S007). The test is described as follows: mass photometry. The following applies: remark: other sources report otherwise.
Test [3] concerns the target LRRK2 G2019S, full-length, N-terminal Strep-FLAG (SF) tagged (human) (UniProt Q5S007). The test is described as follows: native gel or EMSA. As to conditions: remark: other sources report otherwise.

Substance “LRRK2 R1441G, full-length, N-terminal Strep-FLAG (SF) tagged, Q5S007 1-2527” came in with a stoichiometry N in test [1] of 2.

Regarding “Leucine-rich repeat kinase 2 (LRRK2), full-length wild type, N-terminal Strep-FLAG (SF) tagged, Q5S007 1-2527”, the Kd in test [2] amounted to 0.2 µM.

Take “LRRK2 G2019S, full-length, N-terminal Strep-FLAG (SF) tagged, Q5S007 1-2527”: in test [3], the stoichiometry N worked out at 2.
